# B1: F1*; the commonest letter at each place (parent)
# chain: GAGACCGCAACTGAAAAGTTGTTATCACTTGTCGTAAGACACTTTGGATGGGTTGAAGTTCTGCACGTAGAAGCAAAAGGC
# Variants of: B1
# Assay: fraction ligated after 30 min (ligated reads / total reads); higher = more ligase activity
# Conditions: with F1*sub RNA substrate (template-directed ligation), 42 °C
# Procedure: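 Chip-synthesised pool of F1* ligase ribozyme variants (all single and double substitutions, single, double and triple deletions in the catalytic core and GAA bulge, plus designed variants) was transcribed with T7 and reacted as a pool with excess substrate F1*sub for 30 min at 42 C in 50 mM EPPS pH 8.5, 25 mM MgCl2. Ligated and unligated bands were separated by PAGE, barcoded by RT and deep sequenced; fraction ligated = ligated reads / total reads per variant, relative activity = FL / FL of wild type (0.826). Sequences are the DNA template of the ribozyme.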
row,Variant,fraction ligated
1,GAGACCGCAACTGAAAAGTTGTTATCCCTTGTCTTAAGACACTTTGGATGGGTTGAAGTTCTGCACGTAGAAGCAAAAGGC,0.815
2,GAGACCGCAACTGAAAAGTTGTTATCCCTTGTCCTAAGACACTTTGGATGGGTTGAAGTTCTGCACGTAGAAGCAAAAGGC,0.808
3,GAGACCGCAACTGAAAAGTTGTTATCCCTTGTCATAAGACACTTTGGATGGGTTGAAGTTCTGCACGTAGAAGCAAAAGGC,0.809
4,GAGACCGCAACTGAAAAGTTGTTATCCCTTGTCGTAAGACACTTTCGATGGGTTGAAGTTCTGCACGTAGAAGCAAAAGGC,0.782
5,GAGACCGCAACTGAAAAGTTGTTATCCCTTGTCGTAAGACACTTTTGATGGGTTGAAGTTCTGCACGTAGAAGCAAAAGGC,0.78
6,GAGACCGCAACTGAAAAGTTGTTATCCCTTGTCGTAAGACACTTTAGATGGGTTGAAGTTCTGCACGTAGAAGCAAAAGGC,0.82
7,GAGACCGCAACTGAAAAGTTGTTATCCCTCGTCGTAAGACACTTTGGATGGGTTGAAGTTCTGCACGTAGAAGCAAAAGGC,0.774
8,GAGACCGCAACTGAAAAGTTGTTATCCCTAGTCGTAAGACACTTTGGATGGGTTGAAGTTCTGCACGTAGAAGCAAAAGGC,0.783
9,GAGACCGCAACTGAAAAGTTGTTATCCCTGGTCGTAAGACACTTTGGATGGGTTGAAGTTCTGCACGTAGAAGCAAAAGGC,0.825
10,GAGACCGCAACTGAAAAGTTGTTATCCCTTGTCGCAAGACACTTTGGATGGGTTGAAGTTCTGCACGTAGAAGCAAAAGGC,0.813
11,GAGACCGCAACTGAAAAGTTGTTATCCCTTGTCGAAAGACACTTTGGATGGGTTGAAGTTCTGCACGTAGAAGCAAAAGGC,0.835
12,GAGACCGCAACTGAAAAGTTGTTATCCCTTGTCGGAAGACACTTTGGATGGGTTGAAGTTCTGCACGTAGAAGCAAAAGGC,0.82
13,GAGACCGCAACTGAAAAGTTGTTATCCCTTGTCGTAAGACACTTTGGATAGGTTGAAGTTCTGCACGTAGAAGCAAAAGGC,0.18
14,GAGACCGCAACTGAAAAGTTGTTATCCCTTGTCGTAAGACACTTTGGATTGGTTGAAGTTCTGCACGTAGAAGCAAAAGGC,0.37
15,GAGACCGCAACTGAAAAGTTGTTATCCCTTGTCGTAAGACACTTTGGATCGGTTGAAGTTCTGCACGTAGAAGCAAAAGGC,0.0749
16,GAGACCGCAACTGAAAAGTTGTTATCCCTTGACGTAAGACACTTTGGATGGGTTGAAGTTCTGCACGTAGAAGCAAAAGGC,0.799
17,GAGACCGCAACTGAAAAGTTGTTATCCCTTGGCGTAAGACACTTTGGATGGGTTGAAGTTCTGCACGTAGAAGCAAAAGGC,0.78

row,Variant,fraction ligated
1,GAGACCGCAACTGAAAAGTTGTTATCCCTTGCCGTAAGACACTTTGGATGGGTTGAAGTTCTGCACGTAGAAGCAAAAGGC,0.754
2,GAGACCGCAACTGAAAAGTTGTTATCCCTTGTCGTAAGACACTTGGGATGGGTTGAAGTTCTGCACGTAGAAGCAAAAGGC,0.116
3,GAGACCGCAACTGAAAAGTTGTTATCCCTTGTCGTAAGACACTTCGGATGGGTTGAAGTTCTGCACGTAGAAGCAAAAGGC,0.335
4,GAGACCGCAACTGAAAAGTTGTTATCCCTTGTCGTAAGACACTTAGGATGGGTTGAAGTTCTGCACGTAGAAGCAAAAGGC,0.598
5,GAGACCGCAACTGAAAAGTTGTTATCCCTTGTCGTAACACACTTTGGATGGGTTGAAGTTCTGCACGTAGAAGCAAAAGGC,0.792
6,GAGACCGCAACTGAAAAGTTGTTATCCCTTGTCGTAATACACTTTGGATGGGTTGAAGTTCTGCACGTAGAAGCAAAAGGC,0.837
7,GAGACCGCAACTGAAAAGTTGTTATCCCTTGTCGTAAAACACTTTGGATGGGTTGAAGTTCTGCACGTAGAAGCAAAAGGC,0.807
8,GAGACCGCAACTGAAAAGTTGTTATCGCTTGTCGTAAGACTCTTTGGATGGGTTGAAGTTCTGCACGTAGAAGCAAAAGGC,0.837
9,GAGACCGCAACTGAAAAGTTGTTATCGCTTGTCGTAAGACGCTTTGGATGGGTTGAAGTTCTGCACGTAGAAGCAAAAGGC,0.791
10,GAGACCGCAACTGAAAAGTTGTTATCGCTTGTCGTAAGACCCTTTGGATGGGTTGAAGTTCTGCACGTAGAAGCAAAAGGC,0.789
11,GAGACCGCAACTGAAAAGTTGTTATCCCGTGTCGTAAGACACTTTGGATGGGTTGAAGTTCTGCACGTAGAAGCAAAAGGC,0.797
12,GAGACCGCAACTGAAAAGTTGTTATCCCATGTCGTAAGACACTTTGGATGGGTTGAAGTTCTGCACGTAGAAGCAAAAGGC,0.818
13,GAGACCGCAACTGAAAAGTTGTTATCCCCTGTCGTAAGACACTTTGGATGGGTTGAAGTTCTGCACGTAGAAGCAAAAGGC,0.802
14,GAGACCGCAACTGAAAAGTTGTTATCGCTTGTCGTATGACACTTTGGATGGGTTGAAGTTCTGCACGTAGAAGCAAAAGGC,0.81
15,GAGACCGCAACTGAAAAGTTGTTATCGCTTGTCGTAGGACACTTTGGATGGGTTGAAGTTCTGCACGTAGAAGCAAAAGGC,0.848
16,GAGACCGCAACTGAAAAGTTGTTATCGCTTGTCGTACGACACTTTGGATGGGTTGAAGTTCTGCACGTAGAAGCAAAAGGC,0.817
17,GAGACCGCAACTGAAAAGTTGTTATCCCTTTTCGTAAGACACTTTGGATGGGTTGAAGTTCTGCACGTAGAAGCAAAAGGC,0.789
